# B1: PLCγ2: phospholipase C gamma-2 (protein)
# chain: MSTTVNVDSLAEYEKSQIKRALELGTVMTVFSFRKSTPERRTVQVIMETRQVAWSKTADKIEGFLDIMEIKEIRPGKNSKDFERAKAVRQKEDCCFTILYGTQFVLSTLSLAADSKEDAVNWLSGLKILHQEAMNASTPTIIESWLRKQIYSVDQTRRNSISLRELKTILPLINFKVSSAKFLKDKFVEIGAHKDELSFEQFHLFYKKLMFEQQKSILDEFKKDSSVFILGNTDRPDASAVYLHDFQRFLIHEQQEHWAQDLNKVRERMTKFIDDTMRETAEPFLFVDEFLTYLFSRENSIWDEKYDAVDMQDMNNPLSHYWISSSHNTYLTGDQLRSESSPEAYIRCLRMGCRCIELDCWDGPDGKPVIYHGWTRTTKIKFDDVVQAIKDHAFVTSSFPVILSIEEHCSVEQQRHMAKAFKEVFGDLLLTKPTEASADQLPSPSQLREKIIIKHKKLGPRGDVDVNMEDKKDEHKQQGELYMWDSIDQKWTRHYCAIADAKLSFSDDIEQTMEEEVPQDIPPTELHFGEKWFHKKVEKRTSAEKLLQEYCMETGGKDGTFLVRESETFPNDYTLSFWRSGRVQHCRIRSTMEGGTLKYYLTDNLTFSSIYALIQHYRETHLRCAEFELRLTDPVPNPNPHESKPWYYDSLSRGEAEDMLMRIPRDGAFLIRKREGSDSYAITFRARGKVKHCRINRDGRHFVLGTSAYFESLVELVSYYEKHSLYRKMRLRYPVTPELLERYNMERDINSLYDVSRMYVDPSEINPSMPQRTVKALYDYKAKRSDELSFCRGALIHNVSKEPGGWWKGDYGTRIQQYFPSNYVEDISTADFEELEKQIIEDNPLGSLCRGILDLNTYNVVKAPQGKNQKSFVFILEPKQQGDPPVEFATDRVEELFEWFQSIREITWKIDTKENNMKYWEKNQSIAIELSDLVVYCKPTSKTKDNLENPDFREIRSFVETKADSIIRQKPVDLLKYNQKGLTRVYPKGQRVDSSNYDPFRLWLCGSQMVALNFQTADKYMQMNHALFSLNGRTGYVLQPESMRTEKYDPMPPESQRKILMTLTVKVLGARHLPKLGRSIACPFVEVEICGAEYDNNKFKTTVVNDNGLSPIWAPTQEKVTFEIYDPNLAFLRFVVYEEDMFSDPNFLAHATYPIKAVKSGFRSVPLKNGYSEDIELASLLVFCEMRPVLESEEELYSSCRQLRRRQEELNNQLFLYDTHQNLRNANRDALVKEFSVNENQLQLYQEKCNKRLREKRVSNSKFYS
# Test system: NK92 cells
# Assay: IFNγ production by NK92 cells
# Assay type: cell-based, human
# Conditions: TJW, unpublished
molecule,measurement,value
B1,effect on IFNγ production by NK92 cells,activating

# — article PMC3958483, “Fine Specificity and Molecular Competition in SLAM Family Receptor Signalling” (PLoS ONE, 2014)
